In patent US20210388079A1 (IMMATICS BIOTECHNOLOGIES, published 2021):
Read-outs that look alike come from different tables or passages of the source. Each block holds one binder with its values, some of them ahead of it.

Tests used:
Assay in all cases: cell-based or functional assay
[1] = biological target: T1, HLA-A*02-presented SPINK2-001 on target cells (T2 cells loaded with SPINK2-001 peptide); A375 cells … (human)
[2] = biological target: T1, HLA-A*02-presented SPINK2-001 on target …; remark: listed apart in the source
[3] = biological target: T1, HLA-A*02-presented SPINK2-001 on target …; remark: listed apart in the source

- EC50 (read off the curve), IFNγ release, donor TCRA-0023 [1]: ~0.6 nM
- EC50 (read off the curve), IFNγ release, donor TCRA-0024 [1]: ~1 nM
B1: TCR R44P3E7, alpha and beta chains expressed in human primary CD8+ T-cells by RNA electroporation (TCR, V domains shown)
V domain 1: RGEDVEQSLFLSVREGDSSVINCTYTDSSSTYLYWYKQEPGAGLQLLTYIFSNMDMKQDQRLTVLLNKKDKHLSLRIADTQTGDSAIYFCAEINNNARLMFGDGTQLVVKP
V domain 2: AAGVIQSPRHLIKEKRETATLKCYPIPRHDTVYWYQQGPGQDPQFLISFYEKMQSDKGSIPDRFSAQQFSDYHSELNMSSLELGDSALYFCASSPPDQNTQYFGPGTRLTVLE

- EC50 (read off the curve), IFNγ release, donor TCRA-0023 [2]: ~10 nM
- EC50 (read off the curve), IFNγ release, donor TCRA-0024 [2]: ~50 nM
B2: TCR R59P2A7, alpha and beta chains expressed in human primary CD8+ T-cells by RNA electroporation (TCR, V domains shown)
V domain 1: QKEVEQNSGPLSVPEGAIASLNCTYSDRGSQSFFWYRQYSGKSPELIMSIYSNGDKEDGRFTAQLNKASQYVSLLIRDSQPSDSATYLCAVQPHDMRFGAGTRLTVKP
V domain 2: SQTIHQWPATLVQPVGSPLSLECTVEGTSNPNLYWYRQAAGRGLQLLFYSVGIGQISSEVPQNLSASRPQDRQFILSSKKLLLSDSGFYLCAWSGLVAEQFFGPGTRLTVLE

- EC50 (read off the curve), IFNγ release, donor TCRA-0024 [3]: ~3 nM
B3: TCR R40P1C2, alpha and beta chains expressed in human primary CD8+ T-cells by RNA electroporation (TCR, V domains shown)
V domain 1: QTVTQSQPEMSVQEAETVTLSCTYDTSESDYYLFWYKQPPSRQMILVIRQEAYKQQNATENRFSVNFQKAAKSFSLKISDSQLGDAAMYFCAYLNYQLIWGAGTKLIIKP
V domain 2: EPEVTQTPSHQVTQMGQEVILRCVPISNHLYFYWYRQILGQKVEFLVSFYNNEISEKSEIFDDQFSVERPDGSNFTLKIRSTKLEDSAMYFCASSEMTAVGQYFGPGTRLTVTE
